The target of this experiment is anti-CD52 IgG1-RGY (alemtuzumab with E345R, E430G and S440Y). The experiment in a line: native MS; anti-CD52 IgG1-RGY at a total IgG1 concentration of 2 µM, no peptide; 150 mM ammonium acetate pH 7.5; monomer and hexamer in solution.

B1: anti-CD52 IgG1-RGY (alemtuzumab with E345R, E430G and S440Y) (antibody, V domains shown)
VH: QVQLQESGPGLVRPSQTLSLTCTVSGFTFTDFYMNWVRQPPGRGLEWIGFIRDKAKGYTTEYNPSVKGRVTMLVDTSKNQFSLRLSSVTAADTAVYYCAREGHTAAPFDYWGQGSLVTVSS
VL: DIQMTQSPSSLSASVGDRVTITCKASQNIDKYLNWYQQKPGKAPKLLIYNTNNLQTGVPSRFSGSGSGTDFTFTISSLQPEDIATYYCLQHISRPRTFGQGTKVEIK
Consider B1, for which the stoichiometry N (in general, a count of units in the complex or per binding partner) was 6.

The record behind these values is article PMC10032657.
